The values below are quoted from earlier work in PMC11720126.

Where two headings read alike, the source gives them in different places.

For data set [1], the target named is Calmodulin (Homo sapiens) (UniProt P0DP23).
Data set [2] shares this target. This is another data set of the same source.
Data set [3] has the same target. This is another data set of the same source.
Data set [4] shares this target. The source holds these as a separate data set.

The Kd is the equilibrium constant for the complex coming apart. STIM1 PBD (from UniProt Q13586): the dissociation constant (Kd) in data set [1] was 55 µM; in data set [2], 0.8 µM.

On to STIM2 PBD (from UniProt Q9P246), for which the Kd in data set [3] is 0.9 µM; in data set [4], 150 µM.
